B1: THAP domain-containing protein 7 (Homo sapiens), Q9BT49 (parent)
chain: MPRHCSAAGCCTRDTRETRNRGISFHRLPKKDNPRRGLWLANCQRLDPSGQGLWDPASEYIYFCSKHFEEDCFELVGISGYHRLKEGAVPTIFESFSKLRRTTKTKGHSYPPGPAEVSRLRRCRKRCSEGRGPTTPFSPPPPADVTCFPVEEASAPATLPASPAGRLEPGLSSPFSDLLGPLGAQADEAGCSAQPSPERQPSPLEPRPVSPSAYMLRLPPPAGAYIQNEHSYQVGSALLWKRRAEAALDALDKAQRQLQACKRREQRLRLRLTKLQQERAREKRAQADARQTLKEHVQDFAMQLSSSMA
B2: TNF receptor-associated factor 2 (Homo sapiens), Q12933 (parent)
chain: MAAASVTPPGSLELLQPGFSKTLLGTKLEAKYLCSACRNVLRRPFQAQCGHRYCSFCLASILSSGPQNCAACVHEGIYEEGISILESSSAFPDNAARREVESLPAVCPSDGCTWKGTLKEYESCHEGRCPLMLTECPACKGLVRLGEKERHLEHECPERSLSCRHCRAPCCGADVKAHHEVCPKFPLTCDGCGKKKIPREKFQDHVKTCGKCRVPCRFHAIGCLETVEGEKQQEHEVQWLREHLAMLLSSVLEAKPLLGDQSHAGSELLQRCESLEKKTATFENIVCVLNREVERVAMTAEACSRQHRLDQDKIEALSSKVQQLERSIGLKDLAMADLEQKVLEMEASTYDGVFIWKISDFARKRQEAVAGRIPAIFSPAFYTSRYGYKMCLRIYLNGDGTGRGTHLSLFFVVMKGPNDALLRWPFNQKVTLMLLDQNNREHVIDAFRPDVTSSSFQRPVNDMNIASGCPLFCPVSKMEAKNSYVRDDAIFIKAIVDLTGL
partner: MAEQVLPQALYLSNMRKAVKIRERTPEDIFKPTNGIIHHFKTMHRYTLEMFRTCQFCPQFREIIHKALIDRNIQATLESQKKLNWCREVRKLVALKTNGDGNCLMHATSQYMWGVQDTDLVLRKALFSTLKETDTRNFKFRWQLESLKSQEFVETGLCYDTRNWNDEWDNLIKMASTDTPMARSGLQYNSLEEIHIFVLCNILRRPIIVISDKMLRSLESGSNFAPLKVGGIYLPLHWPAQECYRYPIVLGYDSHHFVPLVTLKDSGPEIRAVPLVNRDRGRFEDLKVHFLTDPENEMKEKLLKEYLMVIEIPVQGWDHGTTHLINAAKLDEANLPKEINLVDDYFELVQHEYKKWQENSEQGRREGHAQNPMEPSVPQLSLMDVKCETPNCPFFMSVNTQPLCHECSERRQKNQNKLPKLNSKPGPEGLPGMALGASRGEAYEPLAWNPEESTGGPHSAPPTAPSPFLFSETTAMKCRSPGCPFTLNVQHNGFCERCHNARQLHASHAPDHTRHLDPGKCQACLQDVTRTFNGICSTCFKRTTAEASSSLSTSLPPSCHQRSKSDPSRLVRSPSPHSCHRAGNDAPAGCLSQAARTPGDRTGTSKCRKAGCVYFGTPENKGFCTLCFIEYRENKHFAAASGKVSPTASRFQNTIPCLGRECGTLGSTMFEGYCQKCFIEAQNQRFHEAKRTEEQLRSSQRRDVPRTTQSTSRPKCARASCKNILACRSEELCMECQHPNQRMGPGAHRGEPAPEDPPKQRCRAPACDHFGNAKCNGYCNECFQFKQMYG
B3: Protein LDOC1 (Homo sapiens), O95751 (parent)
chain: MVDELVLLLHALLMRHRALSIENSQLMEQLRLLVCERASLLRQVRPPSCPVPFPETFNGESSRLPEFIVQTASYMLVNENRFCNDAMKVAFLISLLTGEAEEWVVPYIEMDSPILGDYRAFLDEMKQCFGWDDDEDDDDEEEEDDY
partner: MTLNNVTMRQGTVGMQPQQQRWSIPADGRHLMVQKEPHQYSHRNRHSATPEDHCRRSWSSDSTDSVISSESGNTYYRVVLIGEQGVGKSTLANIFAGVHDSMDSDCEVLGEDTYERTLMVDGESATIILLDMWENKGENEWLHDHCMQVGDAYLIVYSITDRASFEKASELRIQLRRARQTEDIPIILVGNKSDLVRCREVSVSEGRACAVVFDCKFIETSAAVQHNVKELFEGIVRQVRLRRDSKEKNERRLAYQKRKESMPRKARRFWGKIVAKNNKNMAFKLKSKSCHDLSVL
B4: Nuclear pore glycoprotein p62 (Homo sapiens), P37198 (parent)
chain: MSGFNFGGTGAPTGGFTFGTAKTATTTPATGFSFSTSGTGGFNFGAPFQPATSTPSTGLFSLATQTPATQTTGFTFGTATLASGGTGFSLGIGASKLNLSNTAATPAMANPSGFGLGSSNLTNAISSTVTSSQGTAPTGFVFGPSTTSVAPATTSGGFSFTGGSTAQPSGFNIGSAGNSAQPTAPATLPFTPATPAATTAGATQPAAPTPTATITSTGPSLFASIATAPTSSATTGLSLCTPVTTAGAPTAGTQGFSLKAPGAASGTSTTTSTAATATATTTSSSSTTGFALNLKPLAPAGIPSNTAAAVTAPPGPGAAAGAAASSAMTYAQLESLINKWSLELEDQERHFLQQATQVNAWDRTLIENGEKITSLHREVEKVKLDQKRLDQELDFILSQQKELEDLLSPLEELVKEQSGTIYLQHADEEREKTYKLAENIDAQLKRMAQDLKDIIEHLNTSGAPADTSDPLQQICKILNAHMDSLQWIDQNSALLQRKVEEVTKVCEGRRKEQERSFRITFD
B5: Fas-activated serine/threonine kinase (Homo sapiens), Q14296-1 (parent)
chain: MRRPRGEPGPRAPRPTEGATCAGPGESWSPSPNSMLRVLLSAQTSPARLSGLLLIPPVQPCCLGPSKWGDRPVGGGPSAGPVQGLQRLLEQAKSPGELLRWLGQNPSKVRAHHYSVALRRLGQLLGSRPRPPPVEQVTLQDLSQLIIRNCPSFDIHTIHVCLHLAVLLGFPSDGPLVCALEQERRLRLPPKPPPPLQPLLRGGQGLEAALSCPRFLRYPRQHLISSLAEARPEELTPHVMVLLAQHLARHRLREPQLLEAIAHFLVVQETQLSSKVVQKLVLPFGRLNYLPLEQQFMPCLERILAREAGVAPLATVNILMSLCQLRCLPFRALHFVFSPGFINYISGTPHALIVRRYLSLLDTAVELELPGYRGPRLPRRQQVPIFPQPLITDRARCKYSHKDIVAEGLRQLLGEEKYRQDLTVPPGYCTDFLLCASSSGAVLPVRTQDPFLPYPPRSCPQGQAASSATTRDPAQRVVLVLRERWHFCRDGRVLLGSRALRERHLGLMGYQLLPLPFEELESQRGLPQLKSYLRQKLQALGLRWGPEGG
partner: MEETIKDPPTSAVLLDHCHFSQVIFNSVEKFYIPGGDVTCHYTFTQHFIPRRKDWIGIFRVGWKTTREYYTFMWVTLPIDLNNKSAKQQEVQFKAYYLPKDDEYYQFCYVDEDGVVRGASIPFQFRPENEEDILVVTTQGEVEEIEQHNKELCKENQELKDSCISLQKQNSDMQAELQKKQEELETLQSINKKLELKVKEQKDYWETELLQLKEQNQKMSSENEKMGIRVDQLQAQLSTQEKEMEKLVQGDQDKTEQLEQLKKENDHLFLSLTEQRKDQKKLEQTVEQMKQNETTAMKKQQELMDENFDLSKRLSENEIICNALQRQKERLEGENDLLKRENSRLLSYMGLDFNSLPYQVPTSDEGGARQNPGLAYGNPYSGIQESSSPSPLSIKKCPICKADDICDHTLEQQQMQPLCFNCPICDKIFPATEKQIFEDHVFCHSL

Consider seven variants from IntAct's records for PubMed 31515488.

The first assay covers variants of B1. Conditions: with mdfi_human MDFI.
In the case of E168D, the “effect of a mutation on the interaction” value is given as “disrupting interaction strength”.

Variants of B1 are the subject of another assay. Conditions: with traf2_human TRAF2, Q12933.
E168D: the “effect of a mutation on the interaction” value was “with no effect”.

Variants of B1 are the subject of the next assay. Conditions: with set_human SET.
Consider E168D, for which the “effect of a mutation on the interaction” value is “with no effect”.

The next assay covers variants of B2. Conditions: with tnap3_human TNFAIP3, P21580.
Consider A264T, for which the “effect of a mutation on the interaction” value is reported as “with no effect”.

V206I: the “effect of a mutation on the interaction” value is “with no effect”.

For the variant T134A, the “effect of a mutation on the interaction” value is listed as “with no effect”.

Another assay covers variants of B3. Conditions: with gem_human GEM.
Take L12H: the “effect of a mutation on the interaction” value was “disrupting interaction strength”.

The next assay covers variants of B4. Conditions: with nup58_human NUP58, Q9BVL2.
Sequence of nup58_human NUP58, Q9BVL2 (Q9BVL2 whole entry): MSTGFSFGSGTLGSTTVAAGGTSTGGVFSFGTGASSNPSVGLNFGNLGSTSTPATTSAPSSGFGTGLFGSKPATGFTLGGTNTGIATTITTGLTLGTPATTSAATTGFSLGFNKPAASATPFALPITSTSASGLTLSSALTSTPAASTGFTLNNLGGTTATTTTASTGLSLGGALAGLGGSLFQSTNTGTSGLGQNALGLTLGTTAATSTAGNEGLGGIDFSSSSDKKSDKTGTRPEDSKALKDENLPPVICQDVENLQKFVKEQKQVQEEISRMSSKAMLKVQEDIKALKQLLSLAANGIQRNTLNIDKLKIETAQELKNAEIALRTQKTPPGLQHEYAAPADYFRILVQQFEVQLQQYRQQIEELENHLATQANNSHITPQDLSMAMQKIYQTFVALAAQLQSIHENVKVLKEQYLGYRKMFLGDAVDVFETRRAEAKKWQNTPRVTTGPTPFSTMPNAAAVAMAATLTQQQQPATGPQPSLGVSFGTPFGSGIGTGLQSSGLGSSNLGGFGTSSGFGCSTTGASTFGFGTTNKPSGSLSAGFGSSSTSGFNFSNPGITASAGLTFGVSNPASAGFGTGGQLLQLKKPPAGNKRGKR
As to A279T, the “effect of a mutation on the interaction” value was “with no effect”.

A further assay covers variants of B4. Conditions: with hsf2_human HSF2, Q03933.
Sequence of hsf2_human HSF2, Q03933 (Q03933 whole entry): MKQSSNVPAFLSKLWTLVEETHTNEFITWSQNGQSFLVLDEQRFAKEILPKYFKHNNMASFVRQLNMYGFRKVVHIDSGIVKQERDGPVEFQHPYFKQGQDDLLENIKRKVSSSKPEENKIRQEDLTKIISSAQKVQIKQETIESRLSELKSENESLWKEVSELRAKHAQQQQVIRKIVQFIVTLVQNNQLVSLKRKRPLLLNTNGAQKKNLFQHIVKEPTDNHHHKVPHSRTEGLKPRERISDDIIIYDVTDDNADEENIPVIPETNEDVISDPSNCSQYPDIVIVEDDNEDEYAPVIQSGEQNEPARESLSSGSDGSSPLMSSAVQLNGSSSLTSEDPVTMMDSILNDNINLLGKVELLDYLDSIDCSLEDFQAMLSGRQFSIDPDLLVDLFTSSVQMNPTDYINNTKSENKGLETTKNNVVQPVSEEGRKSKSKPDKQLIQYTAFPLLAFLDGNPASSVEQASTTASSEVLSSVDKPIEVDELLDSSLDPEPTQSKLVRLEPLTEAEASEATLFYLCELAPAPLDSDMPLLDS
Consider A279T, for which the “effect of a mutation on the interaction” value is listed as “with no effect”.

In a further assay the parent is B4. Conditions: with ntf2_human NUTF2, P61970.
Sequence of ntf2_human NUTF2, P61970 (P61970 whole entry): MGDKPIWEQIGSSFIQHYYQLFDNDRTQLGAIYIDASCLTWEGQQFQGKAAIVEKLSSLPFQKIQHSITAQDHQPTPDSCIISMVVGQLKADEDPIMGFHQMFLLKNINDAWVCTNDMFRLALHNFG
A279T: the “effect of a mutation on the interaction” value is on record as “with no effect”.

A further assay covers variants of B4. Conditions: with abi2_human ABI2, Q9NYB9.
Sequence of abi2_human ABI2, Q9NYB9 (Q9NYB9 whole entry): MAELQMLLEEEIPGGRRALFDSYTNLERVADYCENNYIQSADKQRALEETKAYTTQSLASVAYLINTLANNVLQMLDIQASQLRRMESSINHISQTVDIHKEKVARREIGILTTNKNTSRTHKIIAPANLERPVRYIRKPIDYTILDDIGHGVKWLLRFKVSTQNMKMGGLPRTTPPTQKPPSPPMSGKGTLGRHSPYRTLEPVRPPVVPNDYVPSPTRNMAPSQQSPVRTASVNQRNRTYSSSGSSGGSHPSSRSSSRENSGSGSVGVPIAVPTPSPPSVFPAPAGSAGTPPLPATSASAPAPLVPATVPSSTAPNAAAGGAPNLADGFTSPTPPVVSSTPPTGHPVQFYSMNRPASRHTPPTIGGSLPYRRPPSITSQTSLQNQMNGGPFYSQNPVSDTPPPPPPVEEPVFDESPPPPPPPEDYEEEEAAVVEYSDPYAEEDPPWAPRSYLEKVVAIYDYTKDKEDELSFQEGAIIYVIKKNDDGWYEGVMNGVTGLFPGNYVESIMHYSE
As to A279T, the “effect of a mutation on the interaction” value is given as “with no effect”.

In the next assay the parent is B5. Conditions: with caco2_human CALCOCO2, Q13137.
Regarding V424L, the “effect of a mutation on the interaction” value is “with no effect”.
